The record followed here is publication PMC8420271 (The EMBO Journal, 2021).

In the assay the target is His-tagged SARS-CoV-2 nucleocapsid (SARS-CoV-2, UniProt P0DTC9 1-419). The assay can be described thus: pull-down.

B1: GST-GSDMD mutant lacking amino acids 265-284 (natural protein)
chain: MGSAFERVVRRVVQELDHGGEFIPVTSLQSSTGFQPYCLVVRKPSSSWFWKPRYKCVNLSIKDILEPDAAEPDVQRGRSFHFYDAMDGQIQGSVELAAPGQAKIAGGAAVSDSSSTSMNVYSLSVDPNTWQTLLHERHLRQPEHKVLQQLRSRGDNVYVVTEVLQTQKEVEVTRTHKREGSGRFSLPGATCLQGEGQGHLSQKKTVTIPSGSTLAFRVAQLVIDSDLDVLLFPDKKQRTFQPPATGHKRSTSEGAWPQLPSGLSEDFQGLRAEVETISKELELLDRELCQLLLEGLEGVLRDQLALRALEEALEQGQSLGPVEPLDGPAGAVLECLVLSSGMLVPELAIPVVYLLGALTMLSETQHKLLAEALESQTLLGPLELVGSLLEQSAPWQERSTMSLPPGLLGNSWGEGAPAWVLLDECGLELGEDTPHVCWEPQAQGRMCALYASLALLSGLSQEPH
As for B1, the binding result was “binds”.
